Target: response regulator PhoP of Mycobacterium tuberculosis (M. tuberculosis) (UniProt P71814)
Experiment: crystal structure

## response regulator PhoP of Mycobacterium tuberculosis (from UniProt P71814 1-247) (natural protein)
  stoichiometry N: 2

From article PMC4832192
